Reference: patent US20160176932A1 (Janssen / Centocor, published 2016)

T1: B1_N67I, S215P (RSV B1, UniProt O36634 27-109; O36634 137-540)
T1 construct: also called PreF N67I S215P, RSV B1, fibritin
T1 chain 1: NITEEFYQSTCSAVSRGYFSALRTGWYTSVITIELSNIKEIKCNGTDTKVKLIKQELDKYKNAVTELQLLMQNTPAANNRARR
T1 chain 2: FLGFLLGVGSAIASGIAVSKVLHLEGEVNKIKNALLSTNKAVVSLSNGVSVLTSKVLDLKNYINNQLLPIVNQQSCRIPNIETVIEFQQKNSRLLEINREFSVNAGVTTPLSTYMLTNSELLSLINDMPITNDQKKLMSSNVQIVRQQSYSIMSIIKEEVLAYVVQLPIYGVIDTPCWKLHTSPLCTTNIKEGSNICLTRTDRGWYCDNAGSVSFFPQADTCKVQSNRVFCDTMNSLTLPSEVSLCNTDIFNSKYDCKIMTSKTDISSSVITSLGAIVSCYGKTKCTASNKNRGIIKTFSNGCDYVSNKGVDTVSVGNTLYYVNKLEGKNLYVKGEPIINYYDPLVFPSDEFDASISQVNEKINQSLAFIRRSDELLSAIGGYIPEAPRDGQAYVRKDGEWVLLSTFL

T2: B1_N67I, S215P loop (RSV B1, UniProt O36634 26-540)
T2 construct: Whole entry named; it begins with the signal peptide 1-26; also called PreFL N67I S215P, RSV B1, fibritin, Loop; F24-N67I + S215P: RSV B1, linker stabilized, fibritin
T2 chain: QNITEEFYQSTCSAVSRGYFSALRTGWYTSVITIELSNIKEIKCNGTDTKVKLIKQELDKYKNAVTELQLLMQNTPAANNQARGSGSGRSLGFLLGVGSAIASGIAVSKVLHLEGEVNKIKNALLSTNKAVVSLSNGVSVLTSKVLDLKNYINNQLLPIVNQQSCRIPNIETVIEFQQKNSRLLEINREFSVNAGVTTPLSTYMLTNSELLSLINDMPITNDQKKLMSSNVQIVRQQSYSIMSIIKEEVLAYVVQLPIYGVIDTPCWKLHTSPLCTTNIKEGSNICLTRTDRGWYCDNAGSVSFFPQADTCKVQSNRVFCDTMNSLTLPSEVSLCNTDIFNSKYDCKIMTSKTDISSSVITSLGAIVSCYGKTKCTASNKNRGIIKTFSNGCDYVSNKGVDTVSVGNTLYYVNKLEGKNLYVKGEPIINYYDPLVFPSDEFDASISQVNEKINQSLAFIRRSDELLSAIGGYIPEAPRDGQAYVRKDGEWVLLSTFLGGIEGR

B1: CR9501 (antibody, V domains shown)
VH: QVQLVQSGPGLVKPSQTLALTCNVSGASINSDNYYWTWIRQRPGGGLEWIGHISYTGNTYYTPSLKSRLSMSLETSQSQFSLRLTSVTAADSAVYFCAACGAYVLISNCGWFDSWGQGTQVTVSS
VL: EIVMTQSPSSLSASIGDRVTITCQASQDISTYLNWYQQKPGQAPRLLIYGASNLETGVPSRFTGSGYGTDFSVTISSLQPEDIATYYCQQYQYLPYTFAPGTKVEIK
notes: Monoclonal antibody with the variable regions of 58C5; Biotinylated and immobilised on streptavidin sensors in the Octet assays; also called pre-fusion-specific Mab CR9501

Columns and labels:
A2_F24 VI56IV (RSV A2) = A2_F24 VI56IV (RSV A2) (UniProt P03420); experiment: Octet endpoint assay, CR9501 on sensor, culture supernatant
B1_N67I, S215P = biological target: T1, B1_N67I, S215P; experiment: Quantitative Octet, CR9501 on sensor, culture supernatant
Description: (§1) To measure concentration of the pre-fusion RSV F protein in cell culture supernatants, quantitative Octet-based method was used. […] Afterwards, the coated biosensors were blocked in mock cell culture supernatant. Quantitative experiment was performed as follows: temperature 30° C., shaking speed 1000 rpm, time of the assay 300 seconds. Concentration of the protein in the cell culture supernatant was calculated using standard curve. The standard curve was prepared for each coated antibody using the A2_F24 N67I+S215P (SEQ NO:21) protein, diluted in mock cell culture supernatant. The measurement was done on the day of supernatant harvest (day 1) and after storage of the supernatant at 4° C. for 5 days or longer. […] The data analysis was done using the FORTEBIO® Data Analysis 6.4 software (FORTEBIO®).

B1_N67I, S215P loop = biological target: T2, B1_N67I, S215P loop; experiment: as above
Description: as §1

Molecule | % of CR9501 binding after 5 days at 4 C relative to day 1 (A2_F24 VI56IV (RSV A2)) | % protein concentration (CR9501) after 5 days at 4 C relative to day of harvest (B1_N67I, S215P) | % protein concentration (CR9501) after 5 days at 4 C relative to day of harvest (B1_N67I, S215P loop)
CR9501 (antibody) | 54% |  | 
B1 |  | 90.9% | 108%
